According to publication PMC3471226 (The Journal of Cell Biology, 2012):

What was measured:
[1] = biological target: GST-talin1 A366/368 (mouse) (UniProt P26039); experiment: pull-down
[2] = biological target: T1, GST-Tiam1-PDZ4 (mouse, UniProt Q60610 765-1234); experiment: SPR
T1 sequence: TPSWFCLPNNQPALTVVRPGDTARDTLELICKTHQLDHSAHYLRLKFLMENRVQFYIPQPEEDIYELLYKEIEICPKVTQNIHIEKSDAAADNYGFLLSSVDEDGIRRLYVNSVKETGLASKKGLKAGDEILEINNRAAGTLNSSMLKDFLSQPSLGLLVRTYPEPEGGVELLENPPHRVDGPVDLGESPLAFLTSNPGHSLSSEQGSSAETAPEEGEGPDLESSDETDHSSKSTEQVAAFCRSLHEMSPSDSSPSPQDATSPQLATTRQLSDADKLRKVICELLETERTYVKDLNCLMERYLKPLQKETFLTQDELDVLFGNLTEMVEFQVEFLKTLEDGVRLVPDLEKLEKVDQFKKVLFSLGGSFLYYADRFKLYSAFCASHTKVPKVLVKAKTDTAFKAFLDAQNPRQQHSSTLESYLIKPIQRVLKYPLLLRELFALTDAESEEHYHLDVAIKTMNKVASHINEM

Tiam1-C1199-HA (from UniProt Q60610 1-1591) (domain or fragment)
decrease of association relative to wild type [1]: 90%

B1: His-talin1 (1–433 aa) (domain or fragment, mouse, UniProt P26039 1-433, looked up)
chain: MVALSLKISIGNVVKTMQFEPSTMVYDACRMIRERIPEALAGPPNDFGLFLSDDDPKKGIWLEAGKALDYYMLRNGDTMEYRKKQRPLKIRMLDGTVKTIMVDDSKTVTDMLMTICARIGITNHDEYSLVRELMEEKKDEGTGTLRKDKTLLRDEKKMEKLKQKLHTDDELNWLDHGRTLREQGVEEHETLLLRRKFFYSDQNVDSRDPVQLNLLYVQARDDILNGSHPVSFDKACEFAGFQCQIQFGPHNEQKHKAGFLDLKDFLPKEYVKQKGERKIFQAHKNCGQMSEIEAKVRYVKLARSLKTYGVSFFLVKEKMKGKNKLVPRLLGITKECVMRVDEKTKEVIQEWSLTNIKRWAASPKSFTLDFGDYQDGYYSVQTTEGEQIAQLIAGYIDIILKKKKSKDHFGLEGDEESTMLEDSVSPKKSTVLQ
Kd [2]: ~430 nM
